Data taken from patent US20210388110A1 (published 2021).
Where a chain is given by its changes, count along the chain named.

B1: GCH003-G1dh/none-Hi-Kn010G3/L0000-k0 (antibody, human IgG1, kappa)
heavy: not shown
chain: EPKSSDKTHTCPPCPAPELLGGPSVFLFPPKPKDTLMISRTPEVTCVVVDVSHEDPEVKFNWYVDGVEVHNAKTKPREEQYNSTYRVVSVLTVLHQDWLNGKEYKCKVSNKALPAPIEKTISKAKGQPREPQVCTLPPSRDELTKNQVSLWCLVKGFYPSDIAVEWESNGQPENNYKTTPPVLDSDGSFFLYSKLTVDKSRWQQGNVFSCSVMHEALHNRYTQKSLSLSP
light: DIVMTQSPLSLPVTPGEPASISCRSSQSLVHSNRNTYLHWYQQKPGQAPRLLIYKVSNRFSGVPDRFSGSGSGTDFTLKISRVEAEDVGVYYCGQGTQVPYTFGQGTKLEIKRTVAAPSVFIFPPSDEQLKSGTASVVCLLNNFYPREAKVQWKVDNALQSGNSQESVTEQDSKDSTYSLSSTLTLSKADYEKHKVYACEVTHQGLSSPVTKSFNRGEC
notes: single-arm antibody
B2: H0610-G1dh/none-Hi-Kn010G3/L0187-k0 (antibody, human IgG1, kappa)
heavy: not shown
chain: B1 chain
light: B1 light with V99Y
notes: single-arm antibody
B3: GCH068-G1dh/none-Hi-Kn010G3/L0000-k0 (antibody, human IgG1, kappa)
heavy: not shown
chain: B1 chain
light: B1 light
notes: single-arm antibody
B4: H0610-G1dh/none-Hi-Kn010G3/L0232-k0 (antibody, human IgG1, kappa)
heavy: not shown
chain: B1 chain
light: B1 light with Q27E
notes: single-arm antibody
B5: H0610-G1dh/none-Hi-Kn010G3/L0113-k0 (antibody, human IgG1, kappa)
heavy: not shown
chain: B1 chain
light: B1 light with N58T
notes: single-arm antibody
B6: GCH055-G1dh/none-Hi-Kn010G3/L0000-k0 (antibody, human IgG1, kappa)
heavy: not shown
chain: B1 chain
light: B1 light
notes: single-arm antibody
B7: H0610-G1dh/none-Hi-Kn010G3/L0144-k0 (antibody, human IgG1, kappa)
heavy: not shown
chain: B1 chain
light: B1 light with S61Q
notes: single-arm antibody
B8: H0610-G1dh/none-Hi-Kn010G3/L0063-k0 (antibody, human IgG1, kappa)
heavy: not shown
chain: B1 chain
light: B1 light with N35E
notes: single-arm antibody
B9: H0610-G1dh/none-Hi-Kn010G3/L0117-k0 (antibody, human IgG1, kappa)
heavy: not shown
chain: B1 chain
light: B1 light with F60A
notes: single-arm antibody
B10: GCH023-G1dh/none-Hi-Kn010G3/L0000-k0 (antibody, human IgG1, kappa)
heavy: not shown
chain: B1 chain
light: B1 light
notes: single-arm antibody
B11: GCH034-G1dh/none-Hi-Kn010G3/L0000-k0 (antibody, human IgG1, kappa)
heavy: not shown
chain: B1 chain
light: B1 light
notes: single-arm antibody
B12: H0610-G1dh/none-Hi-Kn010G3/L0126-k0 (antibody, human IgG1, kappa)
heavy: not shown
chain: B1 chain
light: B1 light with F60N
notes: single-arm antibody
B13: H0610-G1dh/none-Hi-Kn010G3/L0091-k0 (antibody, human IgG1, kappa)
heavy: not shown
chain: B1 chain
light: B1 light with H39N
notes: single-arm antibody
B14: GCH057-G1dh/none-Hi-Kn010G3/L0000-k0 (antibody, human IgG1, kappa)
heavy: not shown
chain: B1 chain
light: B1 light
notes: single-arm antibody
B15: GCH008-G1dh/none-Hi-Kn010G3/L0000-k0 (antibody, human IgG1, kappa)
heavy: not shown
chain: B1 chain
light: B1 light
notes: single-arm antibody
B16: GCH025-G1dh/none-Hi-Kn010G3/L0000-k0 (antibody, human IgG1, kappa)
heavy: not shown
chain: B1 chain
light: B1 light
notes: single-arm antibody
B17: GCH022-G1dh/none-Hi-Kn010G3/L0000-k0 (antibody, human IgG1, kappa)
heavy: not shown
chain: B1 chain
light: B1 light
notes: single-arm antibody
B18: H0610-G1dh/none-Hi-Kn010G3/L0147-k0 (antibody, human IgG1, kappa)
heavy: not shown
chain: B1 chain
light: B1 light with S61V
notes: single-arm antibody
B19: GCH059-G1dh/none-Hi-Kn010G3/L0000-k0 (antibody, human IgG1, kappa)
heavy: not shown
chain: B1 chain
light: B1 light
notes: single-arm antibody
B20: H0610-G1dh/none-Hi-Kn010G3/TR01L003-k0 (antibody, human IgG1, kappa)
heavy: not shown
chain: B1 chain
light: B1 light with L109V, K112E
notes: single-arm antibody
B21: GCH067-G1dh/none-Hi-Kn010G3/L0000-k0 (antibody, human IgG1, kappa)
heavy: not shown
chain: B1 chain
light: B1 light
notes: single-arm antibody
B22: H0610-G1dh/none-Hi-Kn010G3/L0069-k0 (antibody, human IgG1, kappa)
heavy: not shown
chain: B1 chain
light: B1 light with N35M
notes: single-arm antibody
B23: GCH032-G1dh/none-Hi-Kn010G3/L0000-k0 (antibody, human IgG1, kappa)
heavy: not shown
chain: B1 chain
light: B1 light
notes: single-arm antibody
B24: H0610-G1dh/none-Hi-Kn010G3/L0043-k0 (antibody, human IgG1, kappa)
heavy: not shown
chain: B1 chain
light: B1 light with S32N
notes: single-arm antibody
B25: H0610-G1dh/none-Hi-Kn010G3/L0180-k0 (antibody, human IgG1, kappa)
heavy: not shown
chain: B1 chain
light: B1 light with V99N
notes: single-arm antibody
B26: GCH005-G1dh/none-Hi-Kn010G3/L0000-k0 (antibody, human IgG1, kappa)
heavy: not shown
chain: B1 chain
light: B1 light
notes: single-arm antibody
B27: H0610-G1dh/none-Hi-Kn010G3/L0132-k0 (antibody, human IgG1, kappa)
heavy: not shown
chain: B1 chain
light: B1 light with F60V
notes: single-arm antibody
B28: H0610-G1dh/none-Hi-Kn010G3/L0062-k0 (antibody, human IgG1, kappa)
heavy: not shown
chain: B1 chain
light: B1 light with N35D
notes: single-arm antibody
B29: GCH026-G1dh/none-Hi-Kn010G3/L0000-k0 (antibody, human IgG1, kappa)
heavy: not shown
chain: B1 chain
light: B1 light
notes: single-arm antibody
B30: GCH056-G1dh/none-Hi-Kn010G3/L0000-k0 (antibody, human IgG1, kappa)
heavy: not shown
chain: B1 chain
light: B1 light
notes: single-arm antibody
B31: H0610-G1dh/none-Hi-Kn010G3/L0104-k0 (antibody, human IgG1, kappa)
heavy: not shown
chain: B1 chain
light: B1 light with N58F
notes: single-arm antibody
B32: GCH054-G1dh/none-Hi-Kn010G3/L0000-k0 (antibody, human IgG1, kappa)
heavy: not shown
chain: B1 chain
light: B1 light
notes: single-arm antibody
B33: GCH056-G1dh/none-Hi-Kn010G3/L0011-k0 (antibody, human IgG1, kappa)
heavy: not shown
chain: B1 chain
light: B1 light with S28P
notes: single-arm antibody
B34: H0610-G1dh/none-Hi-kn010G3/L0106-k0 (antibody, human IgG1, kappa)
heavy: not shown
chain: B1 chain
light: B1 light with N58H
notes: single-arm antibody
B35: H0610-G1dh/none-Hi-Kn010G3/L0136-k0 (antibody, human IgG1, kappa)
heavy: not shown
chain: B1 chain
light: B1 light with S61F
notes: single-arm antibody
B36: H0610-G1dh/none-Hi-Kn010G3/L0139-k0 (antibody, human IgG1, kappa)
heavy: not shown
chain: B1 chain
light: B1 light with S61I
notes: single-arm antibody
B37: GCH094-G1dh/none-Hi-Kn010G3/L0000-k0 (antibody, human IgG1, kappa)
heavy: not shown
chain: B1 chain
light: B1 light
notes: single-arm antibody
B38: GCH012-G1dh/none-Hi-Kn010G3/L0000-k0 (antibody, human IgG1, kappa)
heavy: not shown
chain: B1 chain
light: B1 light
notes: single-arm antibody
B39: H0610-G1dh/none-Hi-Kn010G3/TR01L005-k0 (antibody, human IgG1, kappa)
heavy: not shown
chain: B1 chain
light: B1 light with Q42L, A48S, R50Q, L109V, K112E
notes: single-arm antibody
B40: GCH100-G1dh/none-Hi-Kn010G3/L0000-k0 (antibody, human IgG1, kappa)
heavy: not shown
chain: B1 chain
light: B1 light
notes: single-arm antibody
B41: H0610-G1dh/none-Hi-Kn010G3/L0109-k0 (antibody, human IgG1, kappa)
heavy: not shown
chain: B1 chain
light: B1 light with N58M
notes: single-arm antibody
B42: H0610-G1dh/none-Hi-Kn010G3/L0129-k0 (antibody, human IgG1, kappa)
heavy: not shown
chain: B1 chain
light: B1 light with F60R
notes: single-arm antibody
B43: H0610-G1dh/none-Hi-Kn010G3/L0123-k0 (antibody, human IgG1, kappa)
heavy: not shown
chain: B1 chain
light: B1 light with F60K
notes: single-arm antibody
B44: GCH061-G1dh/none-Hi-Kn010G3/L0000-k0 (antibody, human IgG1, kappa)
heavy: not shown
chain: B1 chain
light: B1 light
notes: single-arm antibody
B45: H0610-G1dh/none-Hi-Kn010G3/L0138-k0 (antibody, human IgG1, kappa)
heavy: not shown
chain: B1 chain
light: B1 light with S61H
notes: single-arm antibody
B46: H0610-G1dh/none-Hi-Kn010G3/L0046-k0 (antibody, human IgG1, kappa)
heavy: not shown
chain: B1 chain
light: B1 light with S32V
notes: single-arm antibody
B47: H0610-G1dh/none-Hi-Kn010G3/L0089-k0 (antibody, human IgG1, kappa)
heavy: not shown
chain: B1 chain
light: B1 light with H39L
notes: single-arm antibody

These binders were tested against T1, soluble human GPC3 (human, UniProt P51654 25-563, limits assumed) (assay: SPR (Biacore), single-arm antibody, soluble human GPC3).
T1 construct: also called glypican 3
T1 sequence (P51654 other isoform, or with tags, fused parts or gaps limits assumed, form in doubt): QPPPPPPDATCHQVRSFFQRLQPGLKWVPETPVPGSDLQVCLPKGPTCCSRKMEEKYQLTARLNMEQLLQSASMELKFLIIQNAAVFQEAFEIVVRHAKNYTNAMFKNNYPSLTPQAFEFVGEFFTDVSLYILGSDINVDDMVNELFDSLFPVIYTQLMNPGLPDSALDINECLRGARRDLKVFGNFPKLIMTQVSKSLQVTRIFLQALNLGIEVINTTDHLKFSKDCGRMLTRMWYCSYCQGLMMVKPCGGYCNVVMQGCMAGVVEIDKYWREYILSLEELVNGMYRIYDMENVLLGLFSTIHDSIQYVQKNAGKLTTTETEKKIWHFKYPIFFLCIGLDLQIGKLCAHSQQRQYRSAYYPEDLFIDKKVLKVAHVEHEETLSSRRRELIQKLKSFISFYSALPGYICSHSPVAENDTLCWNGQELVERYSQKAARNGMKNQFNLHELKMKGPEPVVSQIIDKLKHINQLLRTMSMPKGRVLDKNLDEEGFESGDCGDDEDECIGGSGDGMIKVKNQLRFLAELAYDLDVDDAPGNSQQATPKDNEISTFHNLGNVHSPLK
Binder B1 has a Kd of 5.2 nM.
B2 was tested, and the Kd was 4.92 nM.
B3 showed a Kd of 6.23 nM.
B4 gave a Kd of 5.38 nM.
B5 was tested, and the Kd was 4.82 nM.
In the case of B6, the Kd is reported as 5.6 nM.
With B7 the Kd was 4.84 nM.
Binder B8 has a Kd of 6.03 nM.
For B9, the Kd was 4.92 nM.
In the case of B10, the Kd is reported as 4.94 nM.
Work on B11 yielded a Kd of 5.09 nM.
Binder B12 has a Kd of 5.62 nM.
In the case of B13, the Kd is reported as 5.43 nM.
In the case of B14, the Kd is reported as 5.61 nM.
Work on B15 yielded a Kd of 5.55 nM.
Binder B16 has a Kd of 5.05 nM.
Binder B17 has a Kd of 4.92 nM.
In the case of B18, the Kd is reported as 4.38 nM.
B19 was tested, and the Kd was 5.7 nM.
B20 was tested, and the Kd was 5.08 nM.
With B21 the Kd was 5.24 nM.
B22 showed a Kd of 5.32 nM.
B23 showed a Kd of 5.74 nM.
For B24, the Kd was 5.14 nM.
B25 gave a Kd of 4.48 nM.
Binder B26 has a Kd of 5.32 nM.
Binder B27 has a Kd of 5.65 nM.
B28 showed a Kd of 5.28 nM.
In the case of B29, the Kd is reported as 5.17 nM.
With B30 the Kd was 5.03 nM.
For B31, the Kd was 5.9 nM.
Binder B32 has a Kd of 5.3 nM.
For B33, the Kd was 4.31 nM.
With B34 the Kd was 5.66 nM.
With B35 the Kd was 5.04 nM.
B36 showed a Kd of 4.78 nM.
B37 gave a Kd of 5.89 nM.
In the case of B38, the Kd is reported as 5.4 nM.
Binder B39 has a Kd of 5.37 nM.
Work on B40 yielded a Kd of 5.39 nM.
B41 showed a Kd of 5.7 nM.
With B42 the Kd was 5.28 nM.
B43 was tested, and the Kd was 5.08 nM.
In the case of B44, the Kd is reported as 5.13 nM.
Binder B45 has a Kd of 5.24 nM.
B46 showed a Kd of 5.45 nM.
In the case of B47, the Kd is reported as 5.24 nM.
